For test [1], the target named is T1, human CD3ε/δ (ACRO systems, CDD-H52W1) (human, UniProt P07766 23-126; P04234 22-105).
T1 construct: bought recombinant heterodimer; also called human CD3 epsilon/delta; Human CD3ε/CD3δ
Put plainly: serum-stability ELISA, Day 7 vs Day 0. In general terms: ELISA stands for enzyme-linked immunosorbent assay.
Description: (§1) The samples to be tested were centrifuged at 4° C. at 12000 rpm for 30 minutes to remove the precipitate. 200 μl of each sample to be tested (0.5 mg/ml) was collected in a 1.5 ml Eppendorf tube. An equal volume of human serum (GEMINI, H2OYOOK) was added, mixed thoroughly, and the mixture was incubated in a 37° C. constant temperature CO₂ incubator. For a total of 10 days, 40 μl samples was aspirated every day and stored at −20° C.
(§2) Enzyme-linked immunosorbent assay (ELISA) was used to test the bispecific antibodies' binding to human CEA and human CD3 epsilon/delta antigen. The steps are as follows: the antigen human CD3ε/δ (ACRO systems, CDD-H52W1) and the recombinant tumor antigen human CEA (CEACAM-5/CD66e, ACRO systems, CE5-H5226) were diluted to 1 μg/ml with PBS, and then added to the 96-well plate at 100 μl per well. The wells were coated overnight at 4° C. After washing 3 times with 0.05% PBST, 200 μl 5% skimmed milk powder was added to each well and incubated at 37° C. for 2 h. After washing 3 times with 0.05% PBST, 100 μl primary antibody sample (10 μg/ml) was added to each well, and incubated at 37° C. for 2 h. After washing 3 times with 0.05% PBST, 100 μl (1:6000) diluted secondary antibody goat anti-human Fc-HRP (sigma, A2170) was added to each well, incubated at room temperature for 1 h. After washing 8 times with 0.05% PBST, 50 μl TMB color developing solution was added to each well, and incubated at room temperature for 10-15 min. 50 μl 1 mM HCl was added to each well to stop the color development. 450 nm Absorbance (OD) was read.
(§3) The binding of antibodies to antigen was calculated according to the following formula: Binding (%)=[(ODdayn−ODb)/(ODday0−ODb)]×100%. ODdayn: experimental well (the protein was stored in the serum for n days); ODday0: control well (the protein was not stored in the serum); ODb: blank well (no primary antibody added).

In test [2] the target is T1, human CD3ε/δ (ACRO systems, CDD-H52W1). Put plainly: serum-stability ELISA, Day 0 (reference).
Test [3] has the same target. Put plainly: serum-stability ELISA, Day 10 vs Day 0.
Description: as §1, §2, §3
For test [4] the target is unchanged. Put plainly: serum-stability ELISA, Day 9 vs Day 0.
Description: as §1, §2, §3
The target is the same in test [5]. Put plainly: serum-stability ELISA, Day 1 vs Day 0.
Description: as §1, §2, §3
For test [6] the target is unchanged. Put plainly: serum-stability ELISA, Day 6 vs Day 0.
Description: as §1, §2, §3
The target is the same in test [7]. The test can be described thus: serum-stability ELISA, Day 5 vs Day 0.
Description: as §1, §2, §3
Test [8] has the same target. Put plainly: serum-stability ELISA, Day 2 vs Day 0.
Description: as §1, §2, §3

B1: 308 (TA3), configuration of FIG. 1X (bispecific antibody)
heavy: EVQLVESGGGLVQPGGSLRLSCAASGYSFTGYTMNWVRQAPGKGLEWVALINPYKGVSTYNQKFKDRFTISVDKSKNTAYLQMNSLRAEDTAVYYCARSGYYGDSDWYFDVWGQGTLVTVSSASTKGPSVFPLAPCSRSTSESTAALGCLVKDYFPEPVTVSWNSGALTSGVHTFPAVLQSSGLYSLSSVVTVPSSSLGTKTYTCNVDHKPSNTKVDKRVESKYGPPCPPCPAPEAAGGPSVFLFPPKPKDTLMISRTPEVTCVVVDVSQEDPEVQFNWYVDGVEVHNAKTKPREEQFNSTYRVVSVLTVLHQDWLNGKEYKCKVSNKGLPSSIEKTISKAKGQPREPQVYTLPPCQEEMTKNQVSLWCLVKGFYPSDIAVEWESNGQPENNYKTTPPVLDSDGSFFLYSRLTVDKSRWQEGNVFSCSVMHEALHNHYTQKSLSLSLGGGGSGGGGSEVQLVESGGGFVQAGESLTLSCTSSTLTFTPYRMAWYRQAPGKQRDLVADISSGDGRTTNYADFAKGRFTISRDNIKNTVFLRMTNLKPEDTAVYYCNTFVSFVGIARSWGQGTQVTVSS
chain: ESKYGPPCPPCPAPEAAGGPSVFLFPPKPKDTLMISRTPEVTCVVVDVSQEDPEVQFNWYVDGVEVHNAKTKPREEQFNSTYRVVSVLTVLHQDWLNGKEYKCKVSNKGLPSSIEKTISKAKGQPREPQVCTLPPSQEEMTKNQVSLSCAVKGFYPSDIAVEWESNGQPENNYKTTPPVLDSDGSFFLVSRLTVDKSRWQEGNVFSCSVMHEALHNRFTQKSLSLSL
light: DIQMTQSPSSLSASVGDRVTITCRASQDIRNYLNWYQQKPGKAPKLLIYYTSRLESGVPSRFSGSGSGTDYTLTISSLQPEDFATYYCQQGNTLPWTFGQGTKVEIK
notes: not shown: kappa light chain constant domain (CL)
Turning to B1, the Binding % in test [1] was determined as 109%; in test [2], 100%; in test [3], 103%; in test [4], 110%; in test [5], 106%; in test [6], 103%. The results for the Binding % in test [7] and in test [8] were 107% and 100%, respectively.

B2: 310 (TA5), configuration of FIG. 1X (bispecific antibody)
heavy: DVQLVQSGAEVKKPGASVKVSCKASGYTFTRYTMHWVRQAPGQGLEWIGYINPSRGYTNYADSVKGRFTITTDKSTSTAYMELSSLRSEDTATYYCARYYDDHYCLDYWGQGTTVTVSSASTKGPSVFPLAPCSRSTSESTAALGCLVKDYFPEPVTVSWNSGALTSGVHTFPAVLQSSGLYSLSSVVTVPSSSLGTKTYTCNVDHKPSNTKVDKRVESKYGPPCPPCPAPEAAGGPSVFLFPPKPKDTLMISRTPEVTCVVVDVSQEDPEVQFNWYVDGVEVHNAKTKPREEQFNSTYRVVSVLTVLHQDWLNGKEYKCKVSNKGLPSSIEKTISKAKGQPREPQVYTLPPCQEEMTKNQVSLWCLVKGFYPSDIAVEWESNGQPENNYKTTPPVLDSDGSFFLYSRLTVDKSRWQEGNVFSCSVMHEALHNHYTQKSLSLSLGGGGSGGGGSEVQLVESGGGFVQAGESLTLSCTSSTLTFTPYRMAWYRQAPGKQRDLVADISSGDGRTTNYADFAKGRFTISRDNIKNTVFLRMTNLKPEDTAVYYCNTFVSFVGIARSWGQGTQVTVSS
chain: ESKYGPPCPPCPAPEAAGGPSVFLFPPKPKDTLMISRTPEVTCVVVDVSQEDPEVQFNWYVDGVEVHNAKTKPREEQFNSTYRVVSVLTVLHQDWLNGKEYKCKVSNKGLPSSIEKTISKAKGQPREPQVCTLPPSQEEMTKNQVSLSCAVKGFYPSDIAVEWESNGQPENNYKTTPPVLDSDGSFFLVSRLTVDKSRWQEGNVFSCSVMHEALHNRFTQKSLSLSL
light: DIVLTQSPATLSLSPGERATLSCRASQSVSYMNWYQQKPGKAPKRWIYDTSKVASGVPARFSGSGSGTDYSLTINSLEAEDAATYYCQQWSSNPLTFGGGTKVEIK
notes: VL row printed 'TAS VL', read as TA5 VL; full chains assembled from parts; not shown: kappa light chain constant domain (CL)
With B2, the Binding % turned out to be 89.2% in test [1]; 100% in test [2]; 101% in test [3]; 90.3% in test [4]; 96.1% in test [5]; 93.2% in test [6]. The results for the Binding % in test [7] and in test [8] were 92.2% and 90.2%, respectively.

B3: 306 (TA7), configuration of FIG. 1W (bispecific antibody)
heavy: EVQLVQSGAEVKKPGASVKVSCKASGFTFTSYYIHWVRQAPGQGLEWIGWIYPENDNTKYNEKFKDRVTITADTSTSTAYLELSSLRSEDTAVYYCARDGYSRYYFDYWGQGTLVTVSSASTKGPSVFPLAPCSRSTSESTAALGCLVKDYFPEPVTVSWNSGALTSGVHTFPAVLQSSGLYSLSSVVTVPSSSLGTKTYTCNVDHKPSNTKVDKRVESKYGPPCPPCPAPEAAGGPSVFLFPPKPKDTLMISRTPEVTCVVVDVSQEDPEVQFNWYVDGVEVHNAKTKPREEQFNSTYRVVSVLTVLHQDWLNGKEYKCKVSNKGLPSSIEKTISKAKGQPREPQVYTLPPCQEEMTKNQVSLWCLVKGFYPSDIAVEWESNGQPENNYKTTPPVLDSDGSFFLYSRLTVDKSRWQEGNVFSCSVMHEALHNHYTQKSLSLSL
chain: EVQLVESGGGFVQAGESLTLSCTSSTLTFTPYRMAWYRQAPGKQRDLVADISSGDGRTTNYADFAKGRFTISRDNIKNTVFLRMTNLKPEDTAVYYCNTFVSFVGIARSWGQGTQVTVSSESKYGPPCPPCPAPEAAGGPSVFLFPPKPKDTLMISRTPEVTCVVVDVSQEDPEVQFNWYVDGVEVHNAKTKPREEQFNSTYRVVSVLTVLHQDWLNGKEYKCKVSNKGLPSSIEKTISKAKGQPREPQVCTLPPSQEEMTKNQVSLSCAVKGFYPSDIAVEWESNGQPENNYKTTPPVLDSDGSFFLVSRLTVDKSRWQEGNVFSCSVMHEALHNRFTQKSLSLSL
light: DIVMTQSPDSLAVSLGERATINCKSSQSLLNSRTRKNYLAWYQQKPGQSPKLLIYWTSTRKSGVPDRFSGSGSGTDFTLTISSLQAEDVAVYYCKQSFILRTFGQGTKVEIK
notes: as for B1
B3: the Binding % amounted to 105% in test [1]; 100% in test [2]; 112% in test [3]; 95.1% in test [4]; 112% in test [5]; 101% in test [6]. Further, the Binding % stood at 115% in test [7] and 110% in test [8].

B4: 312 (TA7), configuration of FIG. 1X (bispecific antibody)
heavy: EVQLVQSGAEVKKPGASVKVSCKASGFTFTSYYIHWVRQAPGQGLEWIGWIYPENDNTKYNEKFKDRVTITADTSTSTAYLELSSLRSEDTAVYYCARDGYSRYYFDYWGQGTLVTVSSASTKGPSVFPLAPCSRSTSESTAALGCLVKDYFPEPVTVSWNSGALTSGVHTFPAVLQSSGLYSLSSVVTVPSSSLGTKTYTCNVDHKPSNTKVDKRVESKYGPPCPPCPAPEAAGGPSVFLFPPKPKDTLMISRTPEVTCVVVDVSQEDPEVQFNWYVDGVEVHNAKTKPREEQFNSTYRVVSVLTVLHQDWLNGKEYKCKVSNKGLPSSIEKTISKAKGQPREPQVYTLPPCQEEMTKNQVSLWCLVKGFYPSDIAVEWESNGQPENNYKTTPPVLDSDGSFFLYSRLTVDKSRWQEGNVFSCSVMHEALHNHYTQKSLSLSLGGGGSGGGGSEVQLVESGGGFVQAGESLTLSCTSSTLTFTPYRMAWYRQAPGKQRDLVADISSGDGRTTNYADFAKGRFTISRDNIKNTVFLRMTNLKPEDTAVYYCNTFVSFVGIARSWGQGTQVTVSS
chain: ESKYGPPCPPCPAPEAAGGPSVFLFPPKPKDTLMISRTPEVTCVVVDVSQEDPEVQFNWYVDGVEVHNAKTKPREEQFNSTYRVVSVLTVLHQDWLNGKEYKCKVSNKGLPSSIEKTISKAKGQPREPQVCTLPPSQEEMTKNQVSLSCAVKGFYPSDIAVEWESNGQPENNYKTTPPVLDSDGSFFLVSRLTVDKSRWQEGNVFSCSVMHEALHNRFTQKSLSLSL
light: DIVMTQSPDSLAVSLGERATINCKSSQSLLNSRTRKNYLAWYQQKPGQSPKLLIYWTSTRKSGVPDRFSGSGSGTDFTLTISSLQAEDVAVYYCKQSFILRTFGQGTKVEIK
notes: as for B1
With B4, the Binding % stood at 98.2% in test [1]; 100% in test [2]; 104% in test [3]; 101% in test [4]; 103% in test [5]; 102% in test [6]. Moreover, the figures for the Binding % in test [7] and in test [8] were 104% and 106%, respectively.

B5: 311 (TA6), configuration of FIG. 1X (bispecific antibody)
heavy: EVQLVQSGAEVKKPGASVKVSCKASGYTFTNYYIHWVRQAPGQGLEWIGWIYPGDGNTKYNEKFKGRATLTADTSTSTAYLELSSLRSEDTAVYYCARDSYSNYYFDYWGQGTLVTVSSASTKGPSVFPLAPCSRSTSESTAALGCLVKDYFPEPVTVSWNSGALTSGVHTFPAVLQSSGLYSLSSVVTVPSSSLGTKTYTCNVDHKPSNTKVDKRVESKYGPPCPPCPAPEAAGGPSVFLFPPKPKDTLMISRTPEVTCVVVDVSQEDPEVQFNWYVDGVEVHNAKTKPREEQFNSTYRVVSVLTVLHQDWLNGKEYKCKVSNKGLPSSIEKTISKAKGQPREPQVYTLPPCQEEMTKNQVSLWCLVKGFYPSDIAVEWESNGQPENNYKTTPPVLDSDGSFFLYSRLTVDKSRWQEGNVFSCSVMHEALHNHYTQKSLSLSLGGGGSGGGGSEVQLVESGGGFVQAGESLTLSCTSSTLTFTPYRMAWYRQAPGKQRDLVADISSGDGRTTNYADFAKGRFTISRDNIKNTVFLRMTNLKPEDTAVYYCNTFVSFVGIARSWGQGTQVTVSS
chain: ESKYGPPCPPCPAPEAAGGPSVFLFPPKPKDTLMISRTPEVTCVVVDVSQEDPEVQFNWYVDGVEVHNAKTKPREEQFNSTYRVVSVLTVLHQDWLNGKEYKCKVSNKGLPSSIEKTISKAKGQPREPQVCTLPPSQEEMTKNQVSLSCAVKGFYPSDIAVEWESNGQPENNYKTTPPVLDSDGSFFLVSRLTVDKSRWQEGNVFSCSVMHEALHNRFTQKSLSLSL
light: DIVMTQSPDSLAVSLGERATINCKSSQSLLNSRTRKNYLAWYQQKPGQPPKLLIYWASTRESGVPDRFSGSGSGTDFTLTISSLQAEDVAVYYCTQSFILRTFGQGTKVEIK
notes: as for B1
Consider B5, for which the Binding % in test [1] was 101%; in test [2] it was 100%; in test [3], 101%; in test [4], 100%; in test [5], 105%; in test [6], 104%. For the same molecule, the Binding % is 103% in test [7] and 105% in test [8].

Source of the values: patent publication US20240400715A1 (VIBRANT PHARMA, published 2024).
